These results are taken from the supplement of paper PMC10598134.

± gives the standard deviation.

This series in a line: collision cross section of modified peptide (TIMS, N2, iRT-aligned); higher = larger / more extended gas-phase ion. The gist of the method: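 Collision cross section was derived from the Mason-Schamp equation. Each value averages 1–3 technical replicates of the most abundant feature per charge state, measured on a timsTOF Pro/HT in dda-PASEF mode (nitrogen, ~2.4 mbar) after a 120-min nanoflow C18 gradient at 60 °C. Synthetic peptide pools (~100 fmol/µL in 2% acetonitrile/0.1% formic acid, iRT standard spiked 1:40) were identified with MaxQuant, and 1/K0 was calibrated with three reference ions and aligned run-wise to the median iRT peptide deviation.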

[1] abbreviates: charge state: 2, modification: Phospho (Y).
Where [2] appears, read: charge state: 2, modification: HexNAc (ST).
Setting [3] is: charge state: 2, modification: Acetyl (K).
[4] abbreviates: charge state: 3, modification: Acetyl (K).
[5] abbreviates: charge state: 2, modification: Butyryl.
[6] abbreviates: charge state: 3, modification: Butyryl.
Setting [7] is: charge state: 2, modification: Crotonyl.
Where [8] appears, read: charge state: 3, modification: Crotonyl.
Setting [9] is: charge state: 3, modification: Dimethyl (K).
Where [10] appears, read: charge state: 2, modification: Formyl.
The mark [11] stands for this setting: charge state: 2, modification: Glutarylation.
Setting [12] is: charge state: 3, modification: Glutarylation.
The mark [13] stands for this setting: charge state: 2, modification: GlyGly (K).
Where [14] appears, read: charge state: 3, modification: GlyGly (K).
[15] abbreviates: charge state: 2, modification: Malonyl.
Where [16] appears, read: charge state: 3, modification: Malonyl.
The mark [17] stands for this setting: charge state: 3, modification: Methyl (K).
The mark [18] stands for this setting: charge state: 2, modification: Succinyl.
The mark [19] stands for this setting: charge state: 3, modification: Trimethyl (K).
Setting [20] is: charge state: 2, modification: hydroxyisobutyryl.
The mark [21] stands for this setting: charge state: 3, modification: hydroxyisobutyryl.
Setting [22] is: charge state: 2, modification: Biotin.
Setting [23] is: charge state: 2, modification: Dimethyl (K).
[24] abbreviates: charge state: 2, modification: Methyl (K).

In turn, VHATSTYR [_VHATSTY(Phospho (Y))R_] gave a collision cross section under setting [1] of 330.17 ± 0.75 Å² and a collision cross section (charge state: 3, modification: Phospho (Y)) of 411.28 Å².

In the case of “VILENIASHEPR [_VILENIAS(HexNAc (ST))HEPR_]”, the collision cross section reads like this: under setting [2], 443 ± 0.62 Å²; (charge state: 3, modification: HexNAc (ST)) 492.7 ± 0.18 Å².

Consider VIVGGSSEYK [_VIVGGSSEY(Nitro (Y))K_], for which, where the note is “charge state: 2, modification: Nitro (Y)”, the collision cross section was 344.24 ± 0.72 Å².

Take VIVGGSSEYK [_VIVGGSSEY(Phospho (Y))K_]: the collision cross section under setting [1] was 358.71 ± 0.065 Å².

Regarding “VLATQPGPGRGR [_VLATQPGPGR(Citrullination (R))GR_]”, the collision cross section came out at 364.01 ± 0.27 Å² (charge state: 2, modification: Citrullination (R)) and 447.25 Å² (charge state: 3, modification: Citrullination (R)).

“VLATQPGPGRGR [_VLATQPGPGR(Methyl (R))GR_]” displayed a collision cross section (charge state: 2, modification: Methyl (R)) of 376.85 ± 0.74 Å² and a collision cross section (charge state: 3, modification: Methyl (R)) of 455.74 ± 9.5 Å².

“VLDSGAPIKIPVGPETLGR [_VLDSGAPIK(Acetyl (K))IPVGPETLGR_]” yielded a collision cross section under setting [3] of 463.33 ± 3.4 Å² and a collision cross section under setting [4] of 505.97 Å².

For the sequence “VLDSGAPIKIPVGPETLGR [_VLDSGAPIK(Butyryl)IPVGPETLGR_]”, the collision cross section was determined as 472.51 ± 0.49 Å² under setting [5] and 512.04 ± 1.8 Å² under setting [6].

Take “VLDSGAPIKIPVGPETLGR [_VLDSGAPIK(Crotonyl)IPVGPETLGR_]”: the collision cross section is, setting by setting: under setting [7], 470.51 ± 1.1 Å²; under setting [8], 511.83 ± 1.6 Å².

Regarding “VLDSGAPIKIPVGPETLGR [_VLDSGAPIK(Dimethyl (K))IPVGPETLGR_]”, the collision cross section under setting [9] was determined as 506.24 ± 0.56 Å².

The sequence “VLDSGAPIKIPVGPETLGR [_VLDSGAPIK(Formyl)IPVGPETLGR_]” displayed a collision cross section under setting [10] of 463.34 ± 1.2 Å².

Consider “VLDSGAPIKIPVGPETLGR [_VLDSGAPIK(Gluratylation)IPVGPETLGR_]”, for which the collision cross section was 465.83 ± 1.5 Å² under setting [11] and 505.05 ± 1 Å² under setting [12].

Take “VLDSGAPIKIPVGPETLGR [_VLDSGAPIK(GlyGly (K))IPVGPETLGR_]”: the collision cross section is, setting by setting: under setting [13], 467.11 ± 1.6 Å²; under setting [14], 510.19 ± 1.1 Å².

For the sequence “VLDSGAPIKIPVGPETLGR [_VLDSGAPIK(Malonyl)IPVGPETLGR_]”, the collision cross section reads like this: under setting [15], 468.64 ± 1.6 Å²; under setting [16], 512.64 ± 6.2 Å².

Consider “VLDSGAPIKIPVGPETLGR [_VLDSGAPIK(Methyl (K))IPVGPETLGR_]”, for which, under setting [17], the collision cross section was found to be 510.82 ± 2.8 Å².

Under setting [18], “VLDSGAPIKIPVGPETLGR [_VLDSGAPIK(Succinyl)IPVGPETLGR_]” came in with a collision cross section of 470.32 ± 0.95 Å².

Sequence “VLDSGAPIKIPVGPETLGR [_VLDSGAPIK(Trimethyl (K))IPVGPETLGR_]” registered a collision cross section under setting [19] of 508.9 ± 0.87 Å².

With “VLDSGAPIKIPVGPETLGR [_VLDSGAPIK(hydroxyisobutyryl)IPVGPETLGR_]”, the collision cross section is, setting by setting: under setting [20], 472.45 ± 0.87 Å²; under setting [21], 522.22 ± 1.2 Å².

In turn, “VLPSITTEILK [_VLPS(HexNAc (ST))ITTEILK_]” had a collision cross section under setting [2] of 396.57 Å².

Under setting [2], VLSIGDGIAR [_VLS(HexNAc (ST))IGDGIAR_] displayed a collision cross section of 372.66 ± 0.12 Å².

Turning to “VLTANSNPSSPSAAKR [_VLTANSNPSSPSAAK(Acetyl (K))R_]”, the collision cross section runs as follows: under setting [3], 425 ± 2.5 Å²; under setting [4], 527.55 ± 2.3 Å².

With “VLTANSNPSSPSAAKR [_VLTANSNPSSPSAAK(Biotin)R_]”, the collision cross section runs as follows: under setting [22], 443.24 ± 0.79 Å²; (charge state: 3, modification: Biotin) 547.09 ± 3.1 Å².

In the case of “VLTANSNPSSPSAAKR [_VLTANSNPSSPSAAK(Butyryl)R_]”, the collision cross section runs as follows: under setting [5], 432.84 ± 1.8 Å²; under setting [6], 531.28 ± 2.7 Å².

As to “VLTANSNPSSPSAAKR [_VLTANSNPSSPSAAK(Crotonyl)R_]”, the collision cross section runs as follows: under setting [7], 433.68 ± 1.1 Å²; under setting [8], 528.16 ± 1.7 Å².

Regarding “VLTANSNPSSPSAAKR [_VLTANSNPSSPSAAK(Dimethyl (K))R_]”, the collision cross section under setting [23] was 441.07 ± 1.1 Å² and the collision cross section under setting [9] was 518.06 ± 0.76 Å².

As to “VLTANSNPSSPSAAKR [_VLTANSNPSSPSAAK(Formyl)R_]”, the collision cross section is 421.8 ± 0.8 Å² under setting [10] and 501.92 ± 27 Å² (charge state: 3, modification: Formyl).

“VLTANSNPSSPSAAKR [_VLTANSNPSSPSAAK(Gluratylation)R_]”: the collision cross section is on record as 432.88 ± 2 Å² under setting [11] and 532.45 ± 0.12 Å² under setting [12].

In turn, “VLTANSNPSSPSAAKR [_VLTANSNPSSPSAAK(GlyGly (K))R_]” showed a collision cross section under setting [13] of 445.95 ± 0.95 Å² and a collision cross section under setting [14] of 511.93 ± 0.35 Å².

On to “VLTANSNPSSPSAAKR [_VLTANSNPSSPSAAK(Malonyl)R_]”, for which the collision cross section is given as 426.78 ± 1.6 Å² under setting [15] and 452.99 Å² under setting [16].

Turning to “VLTANSNPSSPSAAKR [_VLTANSNPSSPSAAK(Methyl (K))R_]”, the collision cross section was found to be 432.87 ± 1.5 Å² under setting [24] and 521.25 ± 1.8 Å² under setting [17].

Take “VLTANSNPSSPSAAKR [_VLTANSNPSSPSAAK(Propionyl)R_]”: the collision cross section by setting is: (charge state: 2, modification: Propionyl) 429.75 ± 0.38 Å²; (charge state: 3, modification: Propionyl) 528.16 ± 0.65 Å².

Consider “VLTANSNPSSPSAAKR [_VLTANSNPSSPSAAK(Succinyl)R_]”, for which the collision cross section was 430.61 ± 1.1 Å² under setting [18] and 526.23 ± 1.1 Å² (charge state: 3, modification: Succinyl).

For “VLTANSNPSSPSAAKR [_VLTANSNPSSPSAAK(Trimethyl (K))R_]”, the collision cross section (charge state: 2, modification: Trimethyl (K)) turned out to be 445.51 ± 0.016 Å² and the collision cross section under setting [19] turned out to be 518.89 ± 1.6 Å².

“VLTANSNPSSPSAAKR [_VLTANSNPSSPSAAK(hydroxyisobutyryl)R_]”: the collision cross section was 434.9 ± 0.8 Å² under setting [20] and 533.81 ± 2 Å² under setting [21].

“VMVAPISGSVTTGTK [_VMVAPIS(HexNAc (ST))GSVTTGTK_]” had a collision cross section under setting [2] of 423.51 ± 0.62 Å².

VNALKNLQVK [_VNALK(Acetyl (K))NLQVK_] returned a collision cross section under setting [3] of 369.79 ± 0.48 Å².

As for VNALKNLQVK [_VNALK(Biotin)NLQVK_], the collision cross section under setting [22] came to 393.86 ± 0.23 Å².

Under setting [5], VNALKNLQVK [_VNALK(Butyryl)NLQVK_] showed a collision cross section of 377.18 ± 0.8 Å².

VNALKNLQVK [_VNALK(Crotonyl)NLQVK_] returned a collision cross section under setting [7] of 376.57 ± 0.8 Å².

In the case of VNALKNLQVK [_VNALK(Dimethyl (K))NLQVK_], the collision cross section by setting is: under setting [23], 371.74 ± 0.57 Å²; under setting [9], 421.1 Å².

Consider VNALKNLQVK [_VNALK(Formyl)NLQVK_], for which the collision cross section under setting [10] amounted to 363.1 ± 0.39 Å².

Turning to “VNALKNLQVK [_VNALK(Gluratylation)NLQVK_]”, the collision cross section under setting [11] is 376.79 ± 0.1 Å².

Turning to VNALKNLQVK [_VNALK(GlyGly (K))NLQVK_], the collision cross section is, setting by setting: under setting [13], 383.13 ± 0.38 Å²; under setting [14], 444.03 ± 1.9 Å².

Consider VNALKNLQVK [_VNALK(Malonyl)NLQVK_], for which, under setting [15], the collision cross section is given as 368.09 ± 0.62 Å².

For the sequence VNALKNLQVK [_VNALK(Methyl (K))NLQVK_], the collision cross section by setting is: under setting [24], 371.4 ± 0.45 Å²; under setting [17], 420.52 ± 3.9 Å².
